Test results as given in IntAct's records for PubMed 25910212.

B1: Cullin-4B (Homo sapiens), Q13620 (parent)
chain: MMSQSSGSGDGNDDEATTSKDGGFSSPSPSAAAAAQEVRSATDGNTSTTPPTSAKKRKLNSSSSSSSNSSNEREDFDSTSSSSSTPPLQPRDSASPSTSSFCLGVSVAASSHVPIQKKLRFEDTLEFVGFDAKMAEESSSSSSSSSPTAATSQQQQLKNKSILISSVASVHHANGLAKSSTTVSSFANSKPGSAKKLVIKNFKDKPKLPENYTDETWQKLKEAVEAIQNSTSIKYNLEELYQAVENLCSYKISANLYKQLRQICEDHIKAQIHQFREDSLDSVLFLKKIDRCWQNHCRQMIMIRSIFLFLDRTYVLQNSMLPSIWDMGLELFRAHIISDQKVQNKTIDGILLLIERERNGEAIDRSLLRSLLSMLSDLQIYQDSFEQRFLEETNRLYAAEGQKLMQEREVPEYLHHVNKRLEEEADRLITYLDQTTQKSLIATVEKQLLGEHLTAILQKGLNNLLDENRIQDLSLLYQLFSRVRGGVQVLLQQWIEYIKAFGSTIVINPEKDKTMVQELLDFKDKVDHIIDICFLKNEKFINAMKEAFETFINKRPNKPAELIAKYVDSKLRAGNKEATDEELEKMLDKIMIIFRFIYGKDVFEAFYKKDLAKRLLVGKSASVDAEKSMLSKLKHECGAAFTSKLEGMFKDMELSKDIMIQFKQYMQNQNVPGNIELTVNILTMGYWPTYVPMEVHLPPEMVKLQEIFKTFYLGKHSGRKLQWQSTLGHCVLKAEFKEGKKELQVSLFQTLVLLMFNEGEEFSLEEIKQATGIEDGELRRTLQSLACGKARVLAKNPKGKDIEDGDKFICNDDFKHKLFRIKINQIQMKETVEEQASTTERVFQDRQYQIDAAIVRIMKMRKTLSHNLLVSEVYNQLKFPVKPADLKKRIESLIDRDYMERDKENPNQYNYIA
partner: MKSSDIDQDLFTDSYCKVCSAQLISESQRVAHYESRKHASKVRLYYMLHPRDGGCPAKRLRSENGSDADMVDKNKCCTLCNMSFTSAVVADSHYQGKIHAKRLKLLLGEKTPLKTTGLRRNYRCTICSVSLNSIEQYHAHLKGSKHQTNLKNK
B2: ATP synthase mitochondrial F1 complex assembly factor 2 (Homo sapiens), Q8N5M1 (parent)
chain: MWRSCLRLRDGGRRLLNRPAGGPSASMSPGPTIPSPARAYAPPTERKRFYQNVSITQGEGGFEINLDHRKLKTPQAKLFTVPSEALAIAVATEWDSQQDTIKYYTMHLTTLCNTSLDNPTQRNKDQLIRAAVKFLDTDTICYRVEEPETLVELQRNEWDPIIEWAEKRYGVEISSSTSIMGPSIPAKTREVLVSHLASYNTWALQGIEFVAAQLKSMVLTLGLIDLRLTVEQAVLLSRLEEEYQIQKWGNIEWAHDYELQELRARTAAGTLFIHLCSESTTVKHKLLKE
partner: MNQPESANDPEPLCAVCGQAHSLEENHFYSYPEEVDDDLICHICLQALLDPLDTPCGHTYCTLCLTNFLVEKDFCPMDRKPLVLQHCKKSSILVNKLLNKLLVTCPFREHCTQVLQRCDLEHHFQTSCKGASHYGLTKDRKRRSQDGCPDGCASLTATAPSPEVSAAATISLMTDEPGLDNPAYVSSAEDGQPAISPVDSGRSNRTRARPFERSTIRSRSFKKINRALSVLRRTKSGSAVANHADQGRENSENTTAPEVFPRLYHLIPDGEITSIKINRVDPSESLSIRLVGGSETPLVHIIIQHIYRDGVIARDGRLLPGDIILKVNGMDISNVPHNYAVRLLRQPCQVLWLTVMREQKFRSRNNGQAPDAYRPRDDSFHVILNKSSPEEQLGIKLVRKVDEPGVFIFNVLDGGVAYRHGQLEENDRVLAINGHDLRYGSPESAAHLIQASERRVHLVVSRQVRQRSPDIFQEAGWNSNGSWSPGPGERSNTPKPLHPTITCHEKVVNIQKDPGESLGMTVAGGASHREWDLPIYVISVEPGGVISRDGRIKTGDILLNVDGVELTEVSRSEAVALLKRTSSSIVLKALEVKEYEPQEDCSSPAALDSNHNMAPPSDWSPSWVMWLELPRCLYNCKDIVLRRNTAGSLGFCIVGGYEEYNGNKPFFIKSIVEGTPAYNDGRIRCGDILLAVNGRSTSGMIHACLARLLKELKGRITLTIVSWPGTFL
B3: Carbonic anhydrase-related protein (Homo sapiens), P35219 (parent)
chain: MADLSFIEDTVAFPEKEEDEEEEEEGVEWGYEEGVEWGLVFPDANGEYQSPINLNSREARYDPSLLDVRLSPNYVVCRDCEVTNDGHTIQVILKSKSVLSGGPLPQGHEFELYEVRFHWGRENQRGSEHTVNFKAFPMELHLIHWNSTLFGSIDEAVGKPHGIAIIALFVQIGKEHVGLKAVTEILQDIQYKGKSKTIPCFNPNTLLPDPLLRDYWVYEGSLTIPPCSEGVTWILFRYPLTISQLQIEEFRRLRTHVKGAELVEGCDGILGDNFRPTQPLSDRVIRAAFQ
partner: B2 partner
B4: Cytidine deaminase (Homo sapiens), P32320 (parent)
chain: MAQKRPACTLKPECVQQLLVCSQEAKKSAYCPYSHFPVGAALLTQEGRIFKGCNIENACYPLGICAERTAIQKAVSEGYKDFRAIAIASDMQDDFISPCGACRQVMREFGTNWPVYMTKPDGTYIVMTVQELLPSSFGPEDLQKTQ
partner: B2 partner
B5: Tyrosine-protein kinase BTK (Homo sapiens), Q06187 (parent)
chain: MAAVILESIFLKRSQQKKKTSPLNFKKRLFLLTVHKLSYYEYDFERGRRGSKKGSIDVEKITCVETVVPEKNPPPERQIPRRGEESSEMEQISIIERFPYPFQVVYDEGPLYVFSPTEELRKRWIHQLKNVIRYNSDLVQKYHPCFWIDGQYLCCSQTAKNAMGCQILENRNGSLKPGSSHRKTKKPLPPTPEEDQILKKPLPPEPAAAPVSTSELKKVVALYDYMPMNANDLQLRKGDEYFILEESNLPWWRARDKNGQEGYIPSNYVTEAEDSIEMYEWYSKHMTRSQAEQLLKQEGKEGGFIVRDSSKAGKYTVSVFAKSTGDPQGVIRHYVVCSTPQSQYYLAEKHLFSTIPELINYHQHNSAGLISRLKYPVSQQNKNAPSTAGLGYGSWEIDPKDLTFLKELGTGQFGVVKYGKWRGQYDVAIKMIKEGSMSEDEFIEEAKVMMNLSHEKLVQLYGVCTKQRPIFIITEYMANGCLLNYLREMRHRFQTQQLLEMCKDVCEAMEYLESKQFLHRDLAARNCLVNDQGVVKVSDFGLSRYVLDDEYTSSVGSKFPVRWSPPEVLMYSKFSSKSDIWAFGVLMWEIYSLGKMPYERFTNSETAEHIAQGLRLYRPHLASEKVYTIMYSCWHEKADERPTFKILLSNILDVMDEES
B6: Vitamin D3 receptor (Homo sapiens), P11473 (parent)
chain: MEAMAASTSLPDPGDFDRNVPRICGVCGDRATGFHFNAMTCEGCKGFFRRSMKRKALFTCPFNGDCRITKDNRRHCQACRLKRCVDIGMMKEFILTDEEVQRKREMILKRKEEEALKDSLRPKLSEEQQRIIAILLDAHHKTYDPTYSDFCQFRPPVRVNDGGGSHPSRPNSRHTPSFSGDSSSSCSDHCITSSDMMDSSSFSNLDLSEEDSDDPSVTLELSQLSMLPHLADLVSYSIQKVIGFAKMIPGFRDLTSEDQIVLLKSSAIEVIMLRSNESFTMDDMSWTCGNQDYKYRVSDVTKAGHSLELIEPLIKFQVGLKKLNLHEEEHVLLMAICIVSPDRPGVQDAALIEAIQDRLSNTLQTYIRCRHPPPGSHLLYAKMIQKLADLRSLNEEHSKQYRCLSFQPECSMKLTPLVLEVFGNEIS

Variants of: B1
Conditions: with ZMAT4, Q9H898-2

Variant | effect of a mutation on the interaction
T213I | with no effect
V745A | with no effect

Variants of: B2
Conditions: with lnx1_human LNX1, Q8TBB1

Variant | effect of a mutation on the interaction
W94R | disrupting interaction strength

Variants of: B3
Conditions: with lnx1_human LNX1, Q8TBB1

Variant | effect of a mutation on the interaction
S100P | disrupting interaction strength

Variants of: B4
Conditions: with lnx1_human LNX1, Q8TBB1

Variant | effect of a mutation on the interaction
A70T | with no effect

Variants of: B5
Conditions: with meox2_human MEOX2, P50222
Target sequence in this assay (P50222 whole entry): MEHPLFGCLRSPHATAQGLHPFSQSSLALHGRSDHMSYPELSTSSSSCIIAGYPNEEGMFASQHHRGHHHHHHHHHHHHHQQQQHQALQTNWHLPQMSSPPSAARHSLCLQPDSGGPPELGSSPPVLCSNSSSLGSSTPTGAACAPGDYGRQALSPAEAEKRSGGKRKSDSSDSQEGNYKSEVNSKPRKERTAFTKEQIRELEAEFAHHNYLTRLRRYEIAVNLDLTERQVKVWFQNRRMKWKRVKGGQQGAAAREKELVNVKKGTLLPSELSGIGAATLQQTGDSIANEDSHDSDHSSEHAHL

Variant | effect of a mutation on the interaction
P565L | disrupting interaction strength

Variants of: B6
Conditions: with meox2_human MEOX2, P50222
Target sequence in this assay (P50222 whole entry): as above

Variant | effect of a mutation on the interaction
G33D | with no effect
C190W | disrupting interaction strength
I268T | with no effect
E329K | disrupting interaction strength
